From the DeepSol protein solubility set come the findings set out here.

The nature of this data set: soluble on expression in E. coli; label from the status in PepcDB or PDB records.
Regarding “MSRQPLSREDTAILVPALNEALRIREVVTDALTYCSHVIVIDDGSDDGTAECIAGMPVTLIRHPQRMGKGAALRSGFAQAQRLGMRAVMTMDGDGQHKAADFPRLLAAANRHPGCVIIGARMRKRATQPTIRRIGNDFGDWGIAWGCGFRLIDSQSGQRLYPASVFTLPNVPGEGFVFEAQLLISAARQAGARVVAVPIETRYAGTSPGTFRKSHFRLVRDLWNITSHVVKQVWAYGHVWREYRRVRANPVIVDDPDGEFATVPAVTKSNHSSLEHHHHHH”, the “soluble on expression in E. coli” value is “not soluble”.
On to “MSRSQVTGKEFVLRCVFNDVSNMNDNDMRFGTVEEYFNVPWIFQIQRNNGNLGIYLRCTNLKDQEMWSIFSELELKLVSVYSDTRDQKCKIDMCFGHDSGKFYSSYGWSEFISWNELETSFMEAGSITVEARVLINKSIGFYTPKLMDFDEKMMEYSDIVVLVNGQRFYLLKKFLAFHSTFFESLFLGGFYEAKLAEVPLYDIDVDDFQKFLEVLYGFPVINVIVPINKLTLQQSEMLNACAQYAQTGSQKLTREANYVITEVRLF”, for which the “soluble on expression in E. coli” value is recorded as “not soluble”.
Under “MSRVGVMVLGPAGAGKSTFCNSIISHMQTVGRRAHIVNLDPAAEATKYEFTIDIRDLISLDDVMEEMDLGPNGALIYCFEYLLKNLDWLDEEIGDFNDEYLIFDCPGQIELYTHIPVLPNIVRHLTQQLNFNLCATYLLEAPFVIDSSKFFSGALSAMSAMILLELPHINVLSKLDLIKGDINKKKLKRFLNPDAMLLMETEGMNQASNPKFLRLNQCIANLVDDFGMVQFLPLESNNPDSIETILSYVDDITQWAEGQEQKEPNDQIDVEE” stands “soluble”.
Under “MSRVPRTFAGWTEQMSSSGKMYYYNKKTEISQWDKPAEWPAEGGSAERDKPKGGVNEKPRFAEDRYNEYIGQLSSSSSCFWRQIGIFSLSSSSKYYLCASRFLPLSHSLLQFLREIRRRL” stands “not soluble”.
Under “MSSAYQLVIFDWEGTIADTLGVILHTVATEAKMLGFGDIDPYQARKYVDLGLVQAVKKTLPNLTAGQQEDLLQAVQSAMISRPTEVRLIPGVLEFIQQLHQAKVDLAIATNKGHNSLIRALQATELDQLFKVTRSAGQVPAKPCPQMLEEIMEEFGRDPSSTLMIGDSTTDMEMAKRINVNAIGMDFYHQQEDALKAAGALAVFDDYKLLSAYLMLPEA” stands “not soluble”; under “MSSDKFKLDTLFDDNDEIIEPDGADVKKRNVAYYYHKDVGHFHYGQLHPMKPQRLVVCNDLVVSYEMPKYMTVVESPKLDAADISVFHTEDYVNFLQTVTPKLGLTMPDDVLRQFNIGEDCPIFAGLWDYCTLYAGGSVEGARRLNHKMNDIVINWPGGLHHAKKSEASGFCYVNDIVLGILELLKYHKRVLYIDIDIHHGDGVQEAFNNSDRVMTVSFHRFGQYFPGSGSIMDKGVGPGKYFAINVPLMAAIRDEPYLKLFESVISGVEENFNPEAIVLQCGSDSLCEDRLGQFALSFNAHARAVKYVKSLGKPLMVLGGGGYTLRNVARCWALETGVILGLRMDDEIPGTSLYSHYFTPRLLRPNLVPKMNDANSAAYLASIEKETLACLRMIRGAPSVQMQNIVGIRLDEIEQIEENERLQKSSKSSIEYEVGKVSEKMEEECFVEEDSKPPSFPPGQDPRRIGQYWGYDRSGLAPPRSHSDVIEEAKYEDRDRRKDLNIPGIP”, “not soluble”.
Consider “MSSEPPPPPQPPTHQASVGLLDTPRSRERSPSPLRGNVVPSPLPTRRTRTFSATVRASQGPVYKGVCKCFCRSKGHGFITPADGGPDIFLHISDVEGEYVPVEGDEVTYKMCSIPPKNEKLQAVEVVITHLAPGTKHETWSGHVISS”, for which the “soluble on expression in E. coli” value is “soluble”.
Under “MSSFQLQQLPSLPIKEVFKSLGVCDLLNLCRSSNKSRRLVKKSLKDITFTLKIVAEEKHYKIWLKEDFSKHKARIRAENSNGTSLFKNIRWLMHTFWVETVYLDCTNVEEGDVVKVVEYLKKEKPYYLKLYFECPMISDSLWQLMLNCEADVLIISVDREVKVTFDNVPLLFNCECIILHGVKFSEKGMNLLFKTWQSSKERTLQCVSLTRKLGPFWKKQANEKVVLKGIDVESVEKKRIFKVKKDGIKKSTTYNLVKNDGELATLKFDKQEICFHTENDR” stands “not soluble”; under “MSSGFGGEKEEEITQKTAKSSEKAIVPKYNISDSYYKMVLPFKAGKARGLTTEQLNTRLDIDEFETGLMRLAQDSFSTDDYLFQEGQYLDEDTVLSWLARKKTGSDLKKAEKEDKNFKNEGLNPALPSSGSTEEKNESSPIYLASMLEHDYLVRKDKNSIQLGGVMIGLALNSVYYYREKTGDPQKEVEIKDSTLRQQGEKIAQEVINRLRKKDNLKNVPITVALYKQASKTSIVPGNFIAKTEVKAGSTDISNWDDINEKYVFYPADTTTAEKYPDDTEVFKRFKNSIEEYFPNYTGVVGTALYENDEMKKMKIDIPMQFYGKSEVVAFTQFLTGEVMDYYSKSSVDVEVNITSSDGQEAVIIRNAGDKEPTVHIYDLEHHHHHH”, “soluble”.
Regarding “MSSKNEQTPKVPAELDPLNETIFREQMYAIYQVCQYPSKEQYAEWAQTYQIQQRRIRKWFDNRRTRDRERRKRKGDDNEDSSEISKRGRVTCGLDYKNHEEESTDDFQDDIEELDNSQFEMAKVSSIRDELKDVKSESPPVMEQSFHLRTVQHVSTPRRDRIIPESQTLFVPAGCSLDYEKWTPAEFLQWTSNFLSSAQAMDIIKSQEISGDTMESFFDDPDFRKETGMPYGPFQTIKKHAATVINRFNGYE”, the “soluble on expression in E. coli” value is reported as “not soluble”.
Under “MSSKPLYTILTVFNPIFIYFTKRDNLHTLRFKKDRAIKISEELFPDELCERCGRCCILHAYKTEDGIKTIYCEHLDPETKLCKVYKDRFKHRCLTVMEGILAGVFPKDCPYVKNLKNYEEPWFYRHLRDLEHHHHHH” stands “not soluble”; under “MSSPGGETSTKQQQELKAQIKIGHYILKETLGVGTFGKVKVGIHETTQYKVAVKILNRQKIKSLDVVGKIRREIQNLSLFRHPHIIRLYQVISTPSDIFMIMEHVSGGELFDYIVKHGRLKTAEARRFFQQIISGVDYCHRHMVVHRDLKPENLLLDEQNNVKIADFGLSNIMTDGDFLRTSCGSPNYAAPEVISGKLYAGPEVDVWSCGVILYALLCGTLPFDDEHVPSLFRKIKSGVFPTPDFLERPIVNLLHHMLCVDPMKRATIKDVIAHEWFQKDLPNYLFPPINESEASIVDIEAVREVTERYHVAEEEVTSALLGDDPHHHLSIAYNLIVDNKRIADETAKLSIEEFYQVTPNKGPGPVHRHPERIAASVSSKITPTLDNTEASGANRNKRAKWHLGIRSQSRPEDIMFEVFRAMKQLDMEWKVLNPYHVIVRRKPDAPAADPPKMSLQLYQVDQRSYLLDFKSLADEESGSASASSSRHASMSMPQKPAGIRGTRTSSMPQAMSMEASIEKMEVHDFSDMSCDVTPPPSPGGAKLSQTMQFFEICAALIGTLAR”, “not soluble”.
Under “MSSPGGGTRFALVAGTTETAGRAGISAAGADPELMSVTPAADAELVTYGTPVRTDVTPVSPSGCPTPALVTRAAREVLGFDVTVVDGGLAEKTGAPTVSVGARPGKDIAEQDPVSTAHGAFAAARQFGQSLPADELYLGETIPGGTTTALGVLRALGEDGMVSSSLPENPTAQKSEVVAEGLQASSLEPGDAANEPKRAVRRMGDPVLATLAGLTAGAVESDTAVTLAGGSQCVAVAALVRHGGYEGPLGLATTSYVADDESADVRASVDRLDLDLTVTDPGFDRSDHVAMERFVAGEAKEGVGMGGALALADRAGIPMAEVRDRFAAIYDDLIGDAPTATAEERT” stands “not soluble”; under “MSSPHSLRQQYQSLIASGSIEADPAQARAVQAFTLLNETLDGYKPPKKQGFFGRLFGGGDAGQAPPQGLYIHGEVGRGKTMLMDLFFDASPIALKRRSHFHEFMAETHDRINGFRQAIKRGDIPDADVMELTAASILDEAWLLCFDEFHVTDIADAMILGRLFTKLFELGTVVVATSNVAPDDLYKGGLNRSLFMPFIGQVKRHMRVIRLDARTDYRLEKFAGMKVWLAPDDAEATATIDRAWHRITGTTKGEPRDISIKGRILHVPQADHHVARFSFADLCQKPLGASDYLRLAHEYHTLMIDHVPVMDYADRNAAKRFIALIDTLYDNSVKLMASAAAEPARLYRATEGFEALEFNRTVSRLTEMGSESYLALPHGRRDSTATGETTGLVETMAGDPLEHHHHHH”, “not soluble”.
